Experimental data taken from patent publication US10280218B2, “Antibodies binding to BMP4, and uses thereof” (ACADEMISCH MEDISCH CENTRUM, priority 2014, dated 2019).

T1: BMP2 (Homo sapiens, UniProt P12643)
T1 sequence (P12643 283-396): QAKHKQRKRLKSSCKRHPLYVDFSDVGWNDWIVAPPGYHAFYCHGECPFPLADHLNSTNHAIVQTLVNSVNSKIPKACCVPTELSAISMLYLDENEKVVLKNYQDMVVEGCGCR

T2: BMP4 (Homo sapiens, UniProt P12644)
T2 sequence (P12644 293-408): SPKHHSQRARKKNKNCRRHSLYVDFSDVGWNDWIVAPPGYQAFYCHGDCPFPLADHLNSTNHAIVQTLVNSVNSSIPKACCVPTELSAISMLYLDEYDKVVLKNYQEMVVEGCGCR

T3: BMP2 (human)
T3 chain: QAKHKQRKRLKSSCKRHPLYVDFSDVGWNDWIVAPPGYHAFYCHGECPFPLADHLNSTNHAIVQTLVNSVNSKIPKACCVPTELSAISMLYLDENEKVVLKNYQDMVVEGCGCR

T4: BMP4 (human)
T4 chain: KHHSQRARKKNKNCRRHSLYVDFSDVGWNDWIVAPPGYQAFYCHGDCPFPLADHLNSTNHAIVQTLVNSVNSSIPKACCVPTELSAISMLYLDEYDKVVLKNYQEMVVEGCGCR


Experiments:
[1] = molecular target: T1, BMP2; experiment: Phosphorylation of SMAD1/5/8 in EPC2-hTERT cells (western blot); type: cell-based; details: 100 ng/ml BMP2, 4 hours; indicated concentrations
Experimental: To detect phosphorylation of SMAD1/5/8 in vitro, EPC2-hTERTs were cultured in 24-well plates and activated with 100 ng/ml of BMP2, BMP4, BMP5, BMP6 or BMP7 (R&D Systems) for 4 hours with or without VHH at the indicated concentrations. After activation, each well was washed twice with ice-cold PBS and lysed with 100 μl M-PER lysis buffer (Sigma-Aldrich, MO, United States) containing Halt Protease and Phosphatase Inhibitor Cocktail (Thermo Scientific, Landsmeer, The Netherlands). Cell debris were pelleted and supernatant was collected. 15 μg of protein was then separated by 10% SDS-PAGE and transferred onto a PVDF membrane (Millipore, Amsterdam, The Netherlands). The blots were then blocked with 5% milk in Tris-buffered saline supplemented with 0.1% Tween-20 (TBST) for 1 hour at room temperature and washed in TBST before overnight incubation at 4° C. with antiphospho-SMAD1/5/8 (Cell Signalling), anti-βactin (Santa Cruz) or anti-GAPDH (Millipore) in 5% Bovine Serum Albumin (BSA). Blots were then washed with TBST and incubated for 1 hour at room temperature in 1:2000 horseradish peroxidase—conjugated secondary antibody in TBST. After a final wash with TBST, blots were incubated for 5 minutes in LumiGlow (BIOKE, Leiden, The Netherlands) and then chemiluminescence was detected using a Fuji LAS4000 illuminator (Fujifilm Medical Systems, Stamford, Conn.). Protein was quantitated with Image). […]

[2] = molecular target: T2, BMP4; experiment: as above; type: cell-based; set-up: purchased R&D Systems; details: 100 ng/ml BMP4, 4 hours; indicated concentrations
Experimental: EPC2-hTERT cells were stimulated with mouse BMP4 and pSMAD activation detected by Western Blotting.
To detect phosphorylation of SMAD1/5/8 in vitro, EPC2-hTERTs were cultured in 24-well plates and activated with 100 ng/ml of BMP2, BMP4, BMP5, BMP6 or BMP7 (R&D Systems) for 4 hours with or without VHH at the indicated concentrations. After activation, each well was washed twice with ice-cold PBS and lysed with 100 μl M-PER lysis buffer (Sigma-Aldrich, MO, United States) containing Halt Protease and Phosphatase Inhibitor Cocktail (Thermo Scientific, Landsmeer, The Netherlands). Cell debris were pelleted and supernatant was collected. 15 μg of protein was then separated by 10% SDS-PAGE and transferred onto a PVDF membrane (Millipore, Amsterdam, The Netherlands). The blots were then blocked with 5% milk in Tris-buffered saline supplemented with 0.1% Tween-20 (TBST) for 1 hour at room temperature and washed in TBST before overnight incubation at 4° C. with antiphospho-SMAD1/5/8 (Cell Signalling), anti-βactin (Santa Cruz) or anti-GAPDH (Millipore) in 5% Bovine Serum Albumin (BSA). […] After a final wash with TBST, blots were incubated for 5 minutes in LumiGlow (BIOKE, Leiden, The Netherlands) and then chemiluminescence was detected using a Fuji LAS4000 illuminator (Fujifilm Medical Systems, Stamford, Conn.). Protein was quantitated with Image).

[3] = system: BMP12; experiment: BMP activity luciferase reporter assay (BRE-luciferase, ID1 promoter) in C2C12 cells; type: cell-based, mouse; details: 50 ng/ml hBMP12, 16 h; 500 ng/ml
Experimental: C2C12 cells were plated in 96-well plates when they reached confluency, cells were treated in triplicate with 25 ng/ml of BMP9, 50 ng/ml of BMP10 or 50 ng/ml of BMP12 (all from R&D Systems), for 16 hours. VHHs or Noggin were added at a concentration of 5 ug/ml. C2C12 cells or HEK293 were plated on 12-well plates and starved for 5 hours, before stimulation with 2 ng/ml of TGF-β (R&D Systems) or 100 ng/ml Activin-A (R&D Systems), respectively. VHHs at the indicated concentrations were added at the same time. After 1 hour cells were lysed, and protein isolation and SDS-PAGE separation were performed as described previously. For protein detection the following antibodies were used: antiphospho-SMAD2 at 1:1000 (Cell Signaling).
C2C12 cells were cultured in 96-well plates at 5×10^3 cells/well. After overnight attachment cells were stimulated with 10 ng/ml hBMP4 (Cat No. 314-BP-020; R&D Systems), 50 ng/ml hBMP2 (Cat No. 355-BM-010; R&D Systems), 200 ng/ml hBMP5 (Cat No. 615-BMC-020; R&D Systems), 50 ng/ml hBMP6 (Cat No. 506-BP-020; R&D Systems), 200 ng/ml hBMP7 (Cat No. 354-BP-010; R&D Systems), 25 ng/ml hBMP9 (Cat No. 3209-BP-010; R&D Systems), 25 ng/ml hBMP10 (Cat No. 2926-BP-025; R&D Systems), 50 ng/ml hBMP12 (Cat No. 779-G7-010; R&D Systems) and with or without VHH antibodies: C4C4 and C8C8 at 500 ng/ml; natural antagonist: mNoggin (Cat No. 1967-NG-025; R&D Systems), hNoggin (Cat No. 6057-NG; R&D Systems) and mGremlin (cat#956-GR-050; R&D Systems) at 500 ng/ml; chemical antagonist: 0.5 μM LDN-193189 (Cat No. 11802; Cayman Chemical) and 0.2 μM DMH1 (Cat No. 57146; Selleckchem).

[4] = molecular target: T3, BMP2; experiment: SPR
[5] = molecular target: T4, BMP4; experiment: SPR
[6] = system: patient-derived SMAD4 deficient tumors; details: FIG. 6 of Lombardo et al.; cited from earlier work

Kd [4]	Kd [5]	Molecule	inhibition of BMP2 signaling (pSMAD1/5/8), dimer compared to monomer [1]	inhibition of BMP4 signaling (pSMAD1/5/8), dimer compared to monomer [2]	inhibition of BMP12 signals, comparison of inhibitors [3]	growth of SMAD4 deficient tumors after treatment [6]
–	–	C8E7: E7 linked to C8, hetero-dimer VHH bihead (protein) EVQLVESGGGLVQAGGSLRLSCAASGRTFRINDMGWYRQAPGKSRDMVARITSGGNTNYADSVKGRFTISRDNAKNTVYLQMNSLKPEDTAVYYCNADGLRFDSTRYRPFDSWGQGTQVTVSSGGGGSGGGGSEVQLVESGGGLVQAGGSLRLSCAASGSIRGFVAMAWYRQAPGKQREWVATVTNGGTLYGDSVKGRFTGSRDNAKNTVYLQMNSLKPEDTAVYYCALRQIGASGYDYWGQGTQVTVSS	better at inhibiting both BMP2 and BMP4 as compared to the E7 monomer	better at inhibiting both BMP2 and BMP4 as compared to the E7 monomer	–	–
961 pM	91 pM	hNoggin (protein) QHYLHIRPAPSDNLPLVDLIEHPDPIFDPKEKDLNETLLRSLLGGHYDPGFMATSPPEDRPGGGGGAAGGAEDLAELDQLLRQRPSGAMPSEIKGLEFSEGLAQGKKQRLSKKLRRKLQMWLWSQTFCPVLYAWNDLGSRFWPRYVKVGSCFSKRSCSVPEGMVCKPSKSVHLTVLRWRCQRRGGQRCGWIPIQYPIISECKCSC	–	–	inhibited	generated tumors that grew faster instead of slower
